Results as given in publication PMC12033236.

B1: SUG1 probe A (dsDNA)
DNA 1: CGCACAGTCCACCCAAAGCCGTTGTTA
DNA 2: TAACAACGGCTTTGGGTGGACTGTGCG
B2: SUG1 probe A-m (dsDNA)
DNA 1: CGCTACGTTCACCCAAAGCCGTTGTTA
DNA 2: TAACAACGGCTTTGGGTGAACGTAGCG
B3: SUG1 unlabeled probe A (competitor) (dsDNA)
DNA 1: CGCACAGTCCACCCAAAGCCGTTGTTA
DNA 2: TAACAACGGCTTTGGGTGGACTGTGCG

Experiments:
GST-GS2 (OsGRF4) [1] = target: T1, GST-GS2 (OsGRF4) (Oryza sativa, UniProt Q6ZIK5 1-394); test: EMSA
T1 sequence: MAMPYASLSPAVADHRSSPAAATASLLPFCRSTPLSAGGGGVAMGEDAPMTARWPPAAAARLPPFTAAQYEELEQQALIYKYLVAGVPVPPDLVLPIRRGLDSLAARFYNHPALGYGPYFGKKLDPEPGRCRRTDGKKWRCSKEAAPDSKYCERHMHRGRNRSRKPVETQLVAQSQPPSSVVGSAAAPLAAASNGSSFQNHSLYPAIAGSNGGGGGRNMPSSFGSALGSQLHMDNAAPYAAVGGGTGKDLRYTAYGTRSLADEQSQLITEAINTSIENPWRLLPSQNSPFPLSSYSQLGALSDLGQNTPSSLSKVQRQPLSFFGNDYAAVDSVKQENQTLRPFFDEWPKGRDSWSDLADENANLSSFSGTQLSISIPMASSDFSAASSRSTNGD

GST-GS2 (OsGRF4) [2] = target: T1, GST-GS2 (OsGRF4); test: competition

Binder	binding result (GST-GS2 (OsGRF4) [1])	binding result (GST-GS2 (OsGRF4) [2])
B1	binds	–
B2	no binding	–
B3	–	binds
